The results in this text go back to patent US20250223353A1 (BIOTHEUS, published 2025).

Assay [1] has as its target T1, human PVRIG on the cell surface (human, UniProt Q6DKI7 41-326).
T1 construct: whole, on cells; also called CHO-huPVRIG cells; human PVRIG protein overexpressed on the surface of CHO cells
T1 sequence (looked up): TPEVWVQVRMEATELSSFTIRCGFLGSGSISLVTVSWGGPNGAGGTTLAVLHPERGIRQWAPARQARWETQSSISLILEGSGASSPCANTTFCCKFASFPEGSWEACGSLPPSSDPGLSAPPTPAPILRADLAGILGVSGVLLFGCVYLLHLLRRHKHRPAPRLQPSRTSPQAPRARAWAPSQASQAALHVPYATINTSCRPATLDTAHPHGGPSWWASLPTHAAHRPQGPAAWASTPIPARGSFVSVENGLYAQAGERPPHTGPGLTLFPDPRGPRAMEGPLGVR
The experiment in a line: flow cytometry on CHO-huPVRIG cells. The method, then: (§1) The overexpressing cells were expanded and adjusted to an appropriate cell density, and added to a 96-well flow cytometry plate. After centrifugation, the cells were added with a gradiently diluted sample to be tested, and incubated at 4° C. for 30 minutes. The cells were washed twice with PBS, and added with a fluorescent secondary antibody correspondingly diluted to an appropriate concentration, then incubated at 4° C. for 30 minutes, and washed twice with PBS. Cells were resuspended with PBS, and detected on a CytoFlex flow cytometer, and the corresponding MFI was calculated. Graphpad software was used for graphical analysis to obtain EC50 values.
Background: A flow cytometer gives signals particle by particle.

In assay [2] the target is T2, cynomolgus PVRIG overexpressed on CHO cells (cynomolgus, UniProt A0A2K5WVV8 1-322).
T2 construct: whole, on cells; also called CHO-cynoPVRIG cells
T2 sequence: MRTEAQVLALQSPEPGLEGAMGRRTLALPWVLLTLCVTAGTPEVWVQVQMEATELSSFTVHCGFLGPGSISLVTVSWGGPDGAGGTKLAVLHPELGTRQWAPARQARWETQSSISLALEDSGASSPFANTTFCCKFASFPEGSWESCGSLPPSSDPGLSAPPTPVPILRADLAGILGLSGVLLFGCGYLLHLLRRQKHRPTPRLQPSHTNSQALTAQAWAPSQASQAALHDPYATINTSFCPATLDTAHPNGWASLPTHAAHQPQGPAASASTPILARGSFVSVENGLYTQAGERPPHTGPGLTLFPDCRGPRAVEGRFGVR
The experiment in a line: flow cytometry on CHO-cynoPVRIG cells. The method, then: as §1

In assay [3] the target is Biotin-labeled mouse PVRIG huFc protein (mouse). Nature of the assay: competition ELISA: biotin mouse PVRIG huFc (2 ug/mL) binding to coated mouse CD112-his. How it is done: Specifically, mouse CD112-his protein diluted with 1× coating buffer to a final concentration of 1 μg/mL was added to the ELISA plate at 100 μL/well, covered with the film, and coated overnight at 4° C. The coating solution in the ELISA plate was discarded, and the ELISA plate was washed three times with 1×PBST and was blocked with 5% BSA/PBS at 200 μL/well for 2 hours at room temperature. During the blocking period, the samples to be tested were gradient diluted with 1% BSA/PBS to a final volume of 60 μL/well. […] The above co-incubated samples were discarded, the ELISA plate was washed three times with 1×PBST, and SA-HRP diluted with 1% BSA/PBS was added at 100 μL/well and incubated for 1 hour at room temperature.
(In general: An ELISA detects its analyte on a solid surface through an enzyme-linked reagent.)

Assay [4] has as its target T3, human PVRIG protein with mouse IgG2a Fc tag (human, UniProt Q6DKI7 41-171, limits assumed).
T3 construct: not shown: mouse IgG2a Fc tag
T3 sequence (looked up): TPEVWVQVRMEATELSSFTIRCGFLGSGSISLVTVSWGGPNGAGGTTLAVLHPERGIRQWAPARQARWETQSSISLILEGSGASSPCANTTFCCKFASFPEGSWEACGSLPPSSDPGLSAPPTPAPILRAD
The experiment in a line: flow cytometry competition: human PVRIG-mouse IgG2a Fc (1 ug/mL) binding to CHO-huCD112 cells. The method, then: Specifically, CHO cells overexpressing human CD112 (CHO-huCD112 cells) were generated by transfection of the pCHO1.0 vector (purchased from Invitrogen) with cDNA encoding human CD112 cloned into the multiple cloning site (MCS), followed by pressure screening. The CHO-huCD112 cells were expanded and adjusted to a cell density of 2×10^6 cells/mL, added to a 96-well flow plate at 100 μL/well, and centrifuged for later use. The purified monoclonal antibody was gradiently diluted with PBS and the diluted sample was added to a 96-well flow plate at 60 μL/well. […] The above incubated samples were added at 100 μL/well to the 96-well flow plate containing CHO-huCD112 cells, incubated at 4° C. for 30 min and washed twice with PBS. APC-conjugated goat anti-mouse IgG antibody diluted 100-fold with PBS was added at 100 μL/well, incubated at 4° C. for 30 minutes and washed twice with PBS. Cells were resuspended with PBS at 100 μL/well, and detected on a CytoFlex flow cytometer, and the corresponding MFI was calculated.

The next assay concerns the target T4, human PVRIG-Fc protein (human, UniProt Q6DKI7 41-171).
T4 construct: also called PVRIG-Fc antigen (human); not shown: Fc part
T4 sequence: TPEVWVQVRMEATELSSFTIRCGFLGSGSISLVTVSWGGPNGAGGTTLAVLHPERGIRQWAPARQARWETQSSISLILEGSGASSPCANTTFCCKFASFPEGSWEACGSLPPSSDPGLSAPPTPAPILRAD
The experiment in a line: BLI (ForteBio), PVRIG-Fc on AHQ sensor, 100 nM Fab in solution, monovalent, 1:1 model. The method, then: (§2) Biofilm layer optical interference technology (ForteBio) was used to determine the binding and dissociation rate constant (KD) values of the antibodies and their variants or Fab fragments obtained in Example 1 to human, cynomolgus monkey and mouse PVRIG. ForteBio affinity measurement was performed according to existing methods (Este, P et al., High throughput solution-based measurement of antibody-antigen affinity and epitope binning. Mabs, 2013.5 (2): p270-8).
(§3) The antigen-loaded sensor was incubated in 100 nM Fab solution to the plateau phase, and then the sensor was transferred to an analysis buffer and incubated for at least 2 minutes for measuring dissociation rate. The kinetic analysis was performed using a 1:1 binding model.
(In general: Biolayer interferometry detects binding as a change in optical thickness at a sensor tip.)

Assay [5] concerns the target T5, cynomolgus monkey PVRIG-Fc protein (cynomolgus monkey, UniProt Q6DKI7 41-171 (human entry), limits assumed).
T5 construct: also called cynomolgus PVRIG-Fc protein; not shown: Fc part
T5 chain: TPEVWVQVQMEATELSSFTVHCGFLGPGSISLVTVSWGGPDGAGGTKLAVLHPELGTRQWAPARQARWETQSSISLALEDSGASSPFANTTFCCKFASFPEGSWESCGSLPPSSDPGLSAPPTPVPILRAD
Described as above. The method, then: as §2, §3

A further assay addresses T6, mouse PVRIG-Fc protein (mouse).
T6 construct: not shown: Fc part
T6 chain: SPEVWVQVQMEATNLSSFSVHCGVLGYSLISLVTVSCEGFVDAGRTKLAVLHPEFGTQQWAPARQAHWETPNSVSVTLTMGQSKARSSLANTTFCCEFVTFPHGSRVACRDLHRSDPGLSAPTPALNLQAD
The assay is described as above. How it is done:
as §2, §3

B1: ADI-56249-G1LALA (antibody, human IgG1, kappa, L234A L235A, V domains shown)
VH: QVQLVQSGAEVKKPGSSVKVSCKASGGTFSTFAISWVRQAPGQGLEWMGDIIPIFGSNYAQKFQGRVTITADESTSTAYMELSSLRSEDTAVYYCARGPLEGKVSPFDIWGQGTMVTVSS
VL: DIVMTQSPLSLPVTPGEPASISCRSSQSLLHSTGYNYLDWYLQKPGQSPQLLIYVGSTRASGVPDRFSGSGSGTDFTLKISRVEAEDVGVYYCMQERQFPITFGGGTKVEIKR
What is called EC50 is the concentration needed to bring the measured effect to its halfway point. The IC50 is the concentration that gives 50% inhibition. Consider B1, for which the EC50 stood at 1.3 nM in assay [1] and 0.396 nM in assay [2]. The IC50 in assay [3] worked out at 3.22 nM; in assay [4], 2.07 nM.

B2: ADI-56127 Fab fragment (Fab, V domains shown)
VH: QVQLVQSGAEVKKPGSSVKVSCKASGGTESVDAISWVRQAPGQGLEWMGDIIPFFDTDYAQKFQGRVTITADESTSTAYMELSSLRSEDTAVYYCAREGGTSWTHFFDLWGRGTLVTVSS
VL: not shown
notes: Fab made by papain digestion of the yeast full-length IgG, purified with Kappa Select
The term Kd denotes the free concentration of one partner at which half of the binding sites on the other are occupied at equilibrium, for simple one-to-one binding. As for B2, the Kd with human PVRIG-Fc protein was 0.061 nM; in assay [5], 0.128 nM; with mouse PVRIG-Fc protein it was 114 nM.
